Columns and labels:
[1] = cycloheximide chase immunoblot, MKN28; settings: glycan lost; control: KIAA1324 WT
[2] = immunofluorescence, cell surface level, MKN28; settings: glycan lost; control: KIAA1324 WT

B1: KIAA1324 (ELAPOR1, inceptor): 3NQ (protein)
parent chain: MAEPGHSHHLSARVRGRTERRIPRLWRLLLWAGTAFQVTQGTGPELHACKESEYHYEYTACDSTGSRWRVAVPHTPGLCTSLPDPIKGTECSFSCNAGEFLDMKDQSCKPCAEGRYSLGTGIRFDEWDELPHGFASLSANMELDDSAAESTGNCTSSKWVPRGDYIASNTDECTATLMYAVNLKQSGTVNFEYYYPDSSIIFEFFVQNDQCQPNADDSRWMKTTEKGWEFHSVELNRGNNVLYWRTTAFSVWTKVPKPVLVRNIAITGVAYTSECFPCKPGTYADKQGSSFCKLCPANSYSNKGETSCHQCDPDKYSEKGSSSCNVRPACTDKDYFYTHTACDANGETQLMYKWAKPKICSEDLEGAVKLPASGVKTHCPPCNPGFFKTNNSTCQPCPYGSYSNGSDCTRCPAGTEPAVGFEYKWWNTLPTNMETTVLSGINFEYKGMTGWEVAGDHIYTAAGASDNDFMILTLVVPGFRPPQSVMADTENKEVARITFVFETLCSVNCELYFMVGVNSRTNTPVETWKGSKGKQSYTYIIEENTTTSFTWAFQRTTFHEASRKYTNDVAKIYSINVTNVMNGVASYCRPCALEASDVGSSCTSCPAGYYIDRDSGTCHSCPTNTILKAHQPYGVQACVPCGPGTKNNKIHSLCYNDCTFSRNTPTRTFNYNFSALANTVTLAGGPSFTSKGLKYFHHFTLSLCGNQGRKMSVCTDNVTDLRIPEGESGFSKSITAYVCQAVIIPPEVTGYKAGVSSQPVSLADRLIGVTTDMTLDGITSPAELFHLESLGIPDVIFFYRSNDVTQSCSSGRSTTIRVRCSPQKTVPGSLLLPGTCSDGTCDGCNFHFLWESAAACPLCSVADYHAIVSSCVAGIQKTTYVWREPKLCSGGISLPEQRVTICKTIDFWLKVGISAGTCTAILLTVLTCYFWKKNQKLEYKYSKLVMNATLKDCDLPAADSCAIMEGEDVEDDLIFTSKKSLFGKIKSFTSKRTPDGFDSVPLKTSSGGLDMDL
degradation_or_half_life, other: protein level remaining at 2 h [1]: decreases
localisation_or_trafficking [2]: decreases

Source: article PMC10447535
